Results reported in the supplement of paper PMC11908140.

B1: library; numbered along this chain (parent)
chain: MRKPRAAVGSGHRKQAASQEGRQKHAKNNSQAKPSACDGLARQPEEVVLQASVSSYHLFRDVAEVTAFRGSLLSWYDQEKRDLPWRRRAEDEMDLDRRAYAVWVSEVMLQQTQVATVINYYTGWMQKWPTLQDLASASLEEVNQLWAGLGYYSRGRRLQEGARKVVEELGGHMPRTAETLQQLLPGVGRYTAGAIASIAFGQATGVVDGNVARVLCRVRAIGADPSSTLVSQQLWGLAQQLVDPARPGDFNQAAMELGATVCTPQRPLCSQCPVESLCRARQRVEQEQLLASGSLSGSPDVEECAPNTGQCHLCLPPSEPWDQTLGVVNFPRKASRKPPREESSATCVLEQPGALGAQILLVQRPNSGLLAGLWEFPSVTWEPSEQLQRKALLQELQRWAGPLPATHLRHLGEVVHTFSHIKLTYQVYGLALEGQTPVTTVPPGARWLTQEEFHTAAVSTAMKKVFRVYQGQQPGTCMGSKRSQVSSPCSRKKPRMGQQVLDNFFRSHISTDAHSLNSAAQ

Variants of: B1
Test: 8OG:A repair function score (normalized; synonymous = 0, nonsense = -1) (normalized log-likelihood score); higher = more repair activity (WT-like)
Conditions: with 8OG:A DNA repair reporter (GFP) in HEK-293 MUTYH KO cells
Protocol: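 Saturation mutagenesis (NNN codon scan) of the MUTYH cDNA (521-aa nuclear isoform NM_001048174.1 / NP_001041639), stably expressed under doxycycline induction in HEK-293 MUTYH knockout cells. Cells were co-transfected with an 8OG:A-bearing GFP repair reporter plus mCherry and sorted 72 h later into GFP+ and GFP− bins, three replicates per tile. The Rosace log2 enrichment (GFP+ vs GFP−) was converted per tile to a normalized function score with synonymous variants centered at 0 and nonsense variants (codons 1-471) at -1; low-abundance variants were removed.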

Row | Variant | 8OG:A repair function score
1 | MRKPRAAVGSGHRKQAASQEGRQKHAKNNSQAKPSACDGLARQPEEVVLQASVSSYHLFRDVAEVTAFRGSLLSWYDQEKRDLPWRRRAEDEMDLDRRAYAVWVSEVMLQQTQVATVINYYTGWMQKWPTLQDLTSASLEEVNQLWAGLGYYSRGRRLQEGARKVVEELGGHMPRTAETLQQLLPGVGRYTAGAIASIAFGQATGVVDGNVARVLCRVRAIGADPSSTLVSQQLWGLAQQLVDPARPGDFNQAAMELGATVCTPQRPLCSQCPVESLCRARQRVEQEQLLASGSLSGSPDVEECAPNTGQCHLCLPPSEPWDQTLGVVNFPRKASRKPPREESSATCVLEQPGALGAQILLVQRPNSGLLAGLWEFPSVTWEPSEQLQRKALLQELQRWAGPLPATHLRHLGEVVHTFSHIKLTYQVYGLALEGQTPVTTVPPGARWLTQEEFHTAAVSTAMKKVFRVYQGQQPGTCMGSKRSQVSSPCSRKKPRMGQQVLDNFFRSHISTDAHSLNSAAQ [A135T] | -0.165
2 | MRKPRAAVGSGHRKQAASQEGRQKHAKNNSQAKPSACDGLARQPEEVVLQASVSSYHLFRDVAEVTAFRGSLLSWYDQEKRDLPWRRRAEDEMDLDRRAYAVWVSEVMLQQTQVATVINYYTGWMQKWPTLQDLQSASLEEVNQLWAGLGYYSRGRRLQEGARKVVEELGGHMPRTAETLQQLLPGVGRYTAGAIASIAFGQATGVVDGNVARVLCRVRAIGADPSSTLVSQQLWGLAQQLVDPARPGDFNQAAMELGATVCTPQRPLCSQCPVESLCRARQRVEQEQLLASGSLSGSPDVEECAPNTGQCHLCLPPSEPWDQTLGVVNFPRKASRKPPREESSATCVLEQPGALGAQILLVQRPNSGLLAGLWEFPSVTWEPSEQLQRKALLQELQRWAGPLPATHLRHLGEVVHTFSHIKLTYQVYGLALEGQTPVTTVPPGARWLTQEEFHTAAVSTAMKKVFRVYQGQQPGTCMGSKRSQVSSPCSRKKPRMGQQVLDNFFRSHISTDAHSLNSAAQ [A135Q] | -0.686
3 | MRKPRAAVGSGHRKQAASQEGRQKHAKNNSQAKPSACDGLARQPEEVVLQASVSSYHLFRDVAEVTAFRGSLLSWYDQEKRDLPWRRRAEDEMDLDRRAYAVWVSEVMLQQTQVATVINYYTGWMQKWPTLQDLAAASLEEVNQLWAGLGYYSRGRRLQEGARKVVEELGGHMPRTAETLQQLLPGVGRYTAGAIASIAFGQATGVVDGNVARVLCRVRAIGADPSSTLVSQQLWGLAQQLVDPARPGDFNQAAMELGATVCTPQRPLCSQCPVESLCRARQRVEQEQLLASGSLSGSPDVEECAPNTGQCHLCLPPSEPWDQTLGVVNFPRKASRKPPREESSATCVLEQPGALGAQILLVQRPNSGLLAGLWEFPSVTWEPSEQLQRKALLQELQRWAGPLPATHLRHLGEVVHTFSHIKLTYQVYGLALEGQTPVTTVPPGARWLTQEEFHTAAVSTAMKKVFRVYQGQQPGTCMGSKRSQVSSPCSRKKPRMGQQVLDNFFRSHISTDAHSLNSAAQ [S136A] | 0.0607
4 | MRKPRAAVGSGHRKQAASQEGRQKHAKNNSQAKPSACDGLARQPEEVVLQASVSSYHLFRDVAEVTAFRGSLLSWYDQEKRDLPWRRRAEDEMDLDRRAYAVWVSEVMLQQTQVATVINYYTGWMQKWPTLQDLACASLEEVNQLWAGLGYYSRGRRLQEGARKVVEELGGHMPRTAETLQQLLPGVGRYTAGAIASIAFGQATGVVDGNVARVLCRVRAIGADPSSTLVSQQLWGLAQQLVDPARPGDFNQAAMELGATVCTPQRPLCSQCPVESLCRARQRVEQEQLLASGSLSGSPDVEECAPNTGQCHLCLPPSEPWDQTLGVVNFPRKASRKPPREESSATCVLEQPGALGAQILLVQRPNSGLLAGLWEFPSVTWEPSEQLQRKALLQELQRWAGPLPATHLRHLGEVVHTFSHIKLTYQVYGLALEGQTPVTTVPPGARWLTQEEFHTAAVSTAMKKVFRVYQGQQPGTCMGSKRSQVSSPCSRKKPRMGQQVLDNFFRSHISTDAHSLNSAAQ [S136C] | -0.0713
5 | MRKPRAAVGSGHRKQAASQEGRQKHAKNNSQAKPSACDGLARQPEEVVLQASVSSYHLFRDVAEVTAFRGSLLSWYDQEKRDLPWRRRAEDEMDLDRRAYAVWVSEVMLQQTQVATVINYYTGWMQKWPTLQDLADASLEEVNQLWAGLGYYSRGRRLQEGARKVVEELGGHMPRTAETLQQLLPGVGRYTAGAIASIAFGQATGVVDGNVARVLCRVRAIGADPSSTLVSQQLWGLAQQLVDPARPGDFNQAAMELGATVCTPQRPLCSQCPVESLCRARQRVEQEQLLASGSLSGSPDVEECAPNTGQCHLCLPPSEPWDQTLGVVNFPRKASRKPPREESSATCVLEQPGALGAQILLVQRPNSGLLAGLWEFPSVTWEPSEQLQRKALLQELQRWAGPLPATHLRHLGEVVHTFSHIKLTYQVYGLALEGQTPVTTVPPGARWLTQEEFHTAAVSTAMKKVFRVYQGQQPGTCMGSKRSQVSSPCSRKKPRMGQQVLDNFFRSHISTDAHSLNSAAQ [S136D] | 0.029
6 | MRKPRAAVGSGHRKQAASQEGRQKHAKNNSQAKPSACDGLARQPEEVVLQASVSSYHLFRDVAEVTAFRGSLLSWYDQEKRDLPWRRRAEDEMDLDRRAYAVWVSEVMLQQTQVATVINYYTGWMQKWPTLQDLAEASLEEVNQLWAGLGYYSRGRRLQEGARKVVEELGGHMPRTAETLQQLLPGVGRYTAGAIASIAFGQATGVVDGNVARVLCRVRAIGADPSSTLVSQQLWGLAQQLVDPARPGDFNQAAMELGATVCTPQRPLCSQCPVESLCRARQRVEQEQLLASGSLSGSPDVEECAPNTGQCHLCLPPSEPWDQTLGVVNFPRKASRKPPREESSATCVLEQPGALGAQILLVQRPNSGLLAGLWEFPSVTWEPSEQLQRKALLQELQRWAGPLPATHLRHLGEVVHTFSHIKLTYQVYGLALEGQTPVTTVPPGARWLTQEEFHTAAVSTAMKKVFRVYQGQQPGTCMGSKRSQVSSPCSRKKPRMGQQVLDNFFRSHISTDAHSLNSAAQ [S136E] | 0.0125
